pKd: −log10 of the molar value.
Target: recombinant EGFR-Fc (AcroBiosystems) (human) (UniProt P00533)
Test: BLI (Octet QK), biotinylated binder on streptavidin sensor, EGFR-Fc 0-100 nM, 1:1 global fit

- pKd: 8.49
Substance: AFF.EGFR (Z domain-based EGFR-binding affibody ZEGFR:1907) (designed binder)

From patent publication US20220064326A1
